The target of experiment [1] is AH receptor nuclear translocator (ARNT), full length (human) (UniProt P27540). The experiment in a line: yeast two-hybrid, lacZ reporter (FIG. 3).
For experiment [2] the target is unchanged. The experiment in a line: yeast two-hybrid, Galacto-Light lacZ assay, 1 µM βNF.
For experiment [3] the target is unchanged. Nature of the experiment: yeast two-hybrid, Galacto-Light lacZ assay, with vs without 1 µM βNF.
For experiment [4], the target named is Human CLOCK, full length (human) (UniProt O15516). The experiment in a line: cell-based or functional assay.
Human CLOCK, full length (human), sequence (O15516 whole entry): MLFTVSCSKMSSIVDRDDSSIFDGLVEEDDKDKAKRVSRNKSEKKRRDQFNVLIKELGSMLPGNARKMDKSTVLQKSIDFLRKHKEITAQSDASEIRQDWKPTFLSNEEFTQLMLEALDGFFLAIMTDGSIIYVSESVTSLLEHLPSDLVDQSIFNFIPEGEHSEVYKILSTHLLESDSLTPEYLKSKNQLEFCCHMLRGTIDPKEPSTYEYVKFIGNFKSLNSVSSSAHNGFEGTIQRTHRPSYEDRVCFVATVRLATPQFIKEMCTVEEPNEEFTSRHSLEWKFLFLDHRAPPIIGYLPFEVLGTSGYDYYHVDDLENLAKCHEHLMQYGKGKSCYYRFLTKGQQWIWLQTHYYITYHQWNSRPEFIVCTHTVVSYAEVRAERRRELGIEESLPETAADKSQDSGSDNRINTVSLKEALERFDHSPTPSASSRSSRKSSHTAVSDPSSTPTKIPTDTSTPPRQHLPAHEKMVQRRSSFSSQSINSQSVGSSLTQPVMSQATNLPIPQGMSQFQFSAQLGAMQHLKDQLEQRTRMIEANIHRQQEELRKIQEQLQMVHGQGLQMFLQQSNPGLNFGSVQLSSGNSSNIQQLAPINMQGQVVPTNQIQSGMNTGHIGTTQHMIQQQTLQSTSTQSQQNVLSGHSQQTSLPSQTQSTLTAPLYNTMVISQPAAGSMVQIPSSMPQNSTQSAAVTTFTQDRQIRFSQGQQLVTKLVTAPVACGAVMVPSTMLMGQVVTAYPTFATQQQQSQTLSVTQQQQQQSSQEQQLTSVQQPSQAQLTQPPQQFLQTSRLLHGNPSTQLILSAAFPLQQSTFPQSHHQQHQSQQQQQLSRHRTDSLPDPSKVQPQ
The target of a further experiment is MOP1/HIF1α (human) (UniProt Q16665). The experiment in a line: cell-based or functional assay.
MOP1/HIF1α (human), sequence (Q16665 whole entry): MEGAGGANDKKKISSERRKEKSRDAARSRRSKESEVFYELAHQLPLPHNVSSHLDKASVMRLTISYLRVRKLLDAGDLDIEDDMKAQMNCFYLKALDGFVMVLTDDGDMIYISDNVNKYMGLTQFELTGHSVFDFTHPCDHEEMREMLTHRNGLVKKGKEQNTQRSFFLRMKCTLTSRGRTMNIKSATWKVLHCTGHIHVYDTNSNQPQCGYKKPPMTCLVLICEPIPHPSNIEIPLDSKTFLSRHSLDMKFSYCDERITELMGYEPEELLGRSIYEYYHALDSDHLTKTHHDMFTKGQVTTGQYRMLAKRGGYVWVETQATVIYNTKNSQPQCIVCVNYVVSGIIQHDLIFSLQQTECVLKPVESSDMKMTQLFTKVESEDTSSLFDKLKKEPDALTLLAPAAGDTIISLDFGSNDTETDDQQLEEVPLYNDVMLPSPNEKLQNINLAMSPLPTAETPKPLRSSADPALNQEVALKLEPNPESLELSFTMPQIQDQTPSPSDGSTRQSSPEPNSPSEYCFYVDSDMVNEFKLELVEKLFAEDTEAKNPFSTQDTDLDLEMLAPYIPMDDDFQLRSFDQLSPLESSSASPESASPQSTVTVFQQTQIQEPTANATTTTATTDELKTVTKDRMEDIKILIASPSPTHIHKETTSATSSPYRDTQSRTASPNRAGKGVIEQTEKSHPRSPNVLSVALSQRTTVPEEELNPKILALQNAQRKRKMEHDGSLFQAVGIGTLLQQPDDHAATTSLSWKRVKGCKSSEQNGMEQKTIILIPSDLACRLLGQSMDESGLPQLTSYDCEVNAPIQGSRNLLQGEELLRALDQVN
Another experiment has as its target MOP2 (human) (UniProt Q99814). The experiment in a line: cell-based or functional assay.
Another experiment has as its target MOP4 (human) (UniProt Q99743). The experiment in a line: cell-based or functional assay.

The source of these data is US7105647.

AH receptor nuclear translocator (ARNT), full length (human), sequence (P27540 whole entry): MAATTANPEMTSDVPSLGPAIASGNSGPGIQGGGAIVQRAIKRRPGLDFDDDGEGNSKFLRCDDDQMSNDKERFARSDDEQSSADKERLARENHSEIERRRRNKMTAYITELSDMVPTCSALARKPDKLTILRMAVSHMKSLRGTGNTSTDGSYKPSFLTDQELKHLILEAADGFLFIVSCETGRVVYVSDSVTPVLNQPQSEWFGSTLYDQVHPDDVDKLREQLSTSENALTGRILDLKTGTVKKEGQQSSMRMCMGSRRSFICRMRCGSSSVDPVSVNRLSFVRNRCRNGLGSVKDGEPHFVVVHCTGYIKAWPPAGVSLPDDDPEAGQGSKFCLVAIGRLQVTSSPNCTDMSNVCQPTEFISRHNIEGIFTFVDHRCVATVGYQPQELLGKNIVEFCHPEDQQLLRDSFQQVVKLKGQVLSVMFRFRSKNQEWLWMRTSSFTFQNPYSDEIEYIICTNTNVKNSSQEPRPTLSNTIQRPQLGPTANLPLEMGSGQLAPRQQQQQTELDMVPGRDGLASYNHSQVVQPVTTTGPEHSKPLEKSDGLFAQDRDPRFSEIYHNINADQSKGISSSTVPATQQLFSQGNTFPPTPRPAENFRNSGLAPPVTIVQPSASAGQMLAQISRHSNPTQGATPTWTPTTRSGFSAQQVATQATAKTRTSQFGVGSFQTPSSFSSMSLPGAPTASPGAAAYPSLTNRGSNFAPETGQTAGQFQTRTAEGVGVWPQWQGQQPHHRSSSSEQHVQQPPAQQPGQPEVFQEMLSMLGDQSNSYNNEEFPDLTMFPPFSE
MOP2 (human), sequence (Q99814 other isoform, or with tags, fused parts or gaps limits assumed): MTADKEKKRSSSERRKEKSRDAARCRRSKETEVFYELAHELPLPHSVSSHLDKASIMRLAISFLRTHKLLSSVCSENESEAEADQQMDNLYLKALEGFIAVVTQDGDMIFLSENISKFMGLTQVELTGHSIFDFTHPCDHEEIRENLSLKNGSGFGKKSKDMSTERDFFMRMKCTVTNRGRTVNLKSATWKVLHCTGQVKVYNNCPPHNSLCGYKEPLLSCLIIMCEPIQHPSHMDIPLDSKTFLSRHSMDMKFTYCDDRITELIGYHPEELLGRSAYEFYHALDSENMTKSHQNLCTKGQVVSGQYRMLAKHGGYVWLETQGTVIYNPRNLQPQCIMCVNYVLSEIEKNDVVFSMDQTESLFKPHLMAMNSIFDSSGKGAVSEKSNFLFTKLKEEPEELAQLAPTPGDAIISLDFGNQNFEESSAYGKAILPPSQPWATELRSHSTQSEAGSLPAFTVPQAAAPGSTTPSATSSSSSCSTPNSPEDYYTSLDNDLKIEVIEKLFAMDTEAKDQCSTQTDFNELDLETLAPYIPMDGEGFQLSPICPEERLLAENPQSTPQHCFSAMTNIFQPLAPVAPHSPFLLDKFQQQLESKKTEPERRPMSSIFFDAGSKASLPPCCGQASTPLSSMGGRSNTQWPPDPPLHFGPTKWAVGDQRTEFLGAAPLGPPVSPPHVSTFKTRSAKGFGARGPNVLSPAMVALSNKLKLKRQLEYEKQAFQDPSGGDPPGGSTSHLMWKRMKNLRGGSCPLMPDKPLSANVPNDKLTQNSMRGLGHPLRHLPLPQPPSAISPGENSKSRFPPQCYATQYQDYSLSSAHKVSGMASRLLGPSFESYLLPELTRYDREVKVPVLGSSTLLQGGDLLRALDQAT
MOP4 (human), sequence (Q99743 other isoform, or with tags, fused parts or gaps limits assumed): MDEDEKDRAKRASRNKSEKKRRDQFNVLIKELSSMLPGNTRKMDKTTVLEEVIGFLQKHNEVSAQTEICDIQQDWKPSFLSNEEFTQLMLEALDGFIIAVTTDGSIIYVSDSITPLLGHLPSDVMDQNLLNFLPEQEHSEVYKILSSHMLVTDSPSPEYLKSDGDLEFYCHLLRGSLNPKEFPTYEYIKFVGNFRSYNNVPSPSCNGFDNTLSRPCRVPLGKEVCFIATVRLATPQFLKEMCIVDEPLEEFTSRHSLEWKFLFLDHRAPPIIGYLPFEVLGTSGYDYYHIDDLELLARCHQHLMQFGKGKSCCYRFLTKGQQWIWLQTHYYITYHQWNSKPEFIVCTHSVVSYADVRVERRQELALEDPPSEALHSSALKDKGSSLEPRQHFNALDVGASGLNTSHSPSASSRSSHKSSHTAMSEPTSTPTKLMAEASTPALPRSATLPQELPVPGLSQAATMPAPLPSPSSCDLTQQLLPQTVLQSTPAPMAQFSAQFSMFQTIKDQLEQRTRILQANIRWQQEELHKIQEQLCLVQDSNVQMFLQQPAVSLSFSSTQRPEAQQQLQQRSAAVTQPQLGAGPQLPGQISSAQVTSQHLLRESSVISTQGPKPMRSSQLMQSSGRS

The substance “LexAAHR (from UniProt P0A7C2 1-202; P30561 1-805)” showed a fold relative to the LexAARNT-AHR interaction in experiment [1] of 14.7 times. Moreover, the fold above background (lacZ reporter activity) in experiment [2] stood at 913 fold. This substance also gave a fold over the same pair in the absence of ligand in experiment [3] of 6.4 fold.
For the substance “full-length MOP3 (cDNA form identified by the yeast interaction trap)”, the luciferase reporter with three copies of the M34 element, COS-1 cells in experiment [4] was 5.6 fold; with MOP4 (human) it was 3.3 fold. For the same substance, the luciferase reporter with six copies of the M13 element, COS-1 cells came to 3.3 fold with MOP1/HIF1α (human) and 3.6 fold in the experiment with MOP2 (human).
